Measurements: article PMC3427180, “Zea mays Taxilin Protein Negatively Regulates Opaque-2 Transcriptional Activity by Causing a Change in Its Sub-Cellular Distribution” (PLoS ONE, 2012)

Molecular target: T1, Full length Zea mays Opaque-2 (ZmO2) fused to the GAL4 DNA binding domain (Zea mays, UniProt P12959 1-453)
T1 sequence (looked up): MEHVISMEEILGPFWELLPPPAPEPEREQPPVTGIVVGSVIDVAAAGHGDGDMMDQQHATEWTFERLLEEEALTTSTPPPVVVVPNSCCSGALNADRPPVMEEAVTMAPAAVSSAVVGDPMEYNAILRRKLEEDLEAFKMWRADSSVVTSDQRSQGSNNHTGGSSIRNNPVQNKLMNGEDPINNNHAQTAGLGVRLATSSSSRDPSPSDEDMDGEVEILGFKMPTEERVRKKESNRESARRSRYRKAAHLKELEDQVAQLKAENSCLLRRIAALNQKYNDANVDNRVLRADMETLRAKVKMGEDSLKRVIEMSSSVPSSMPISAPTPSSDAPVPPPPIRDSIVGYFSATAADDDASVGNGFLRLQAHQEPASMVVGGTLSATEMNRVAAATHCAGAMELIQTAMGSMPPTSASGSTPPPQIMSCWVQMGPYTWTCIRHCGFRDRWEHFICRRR
Test: cell-based or functional assay

B1: Full length ZmTaxilin fused to the GAL4 activation domain (natural protein, Zea mays, UniProt C0P5X2 1-425, looked up)
chain: MEGSPVARLPEANSLPDGFVPDSESSDTDAAPPSSAPIVDDAIDSDSPDATNPGGEETLSDPSLPASTAEDASSAAAAEALDTLCLDVVADPERALGEHGPTTAARGEGSLKENRASEQVGAPSDQKVVKGSGEPKRKVIKHSKLEKDKELFQLAQQYHKVVAERDQAIAVKDRLESLCREFQRQNKMLKEECQRVSTEGQNMRTELSEKFDHAIKGVSAKLEEQRVERISQLEENNTLRSKLKDLADQYNITQQKYAHQLKEKMLELELADLRLQQHQEKAAQEHTQMQLYAEQVSQLMTTEKNLRLQLASDGERFQHFQDALSKSNEVFETYKQEMEKMISVIKNLKKENEFLKGKCENSDIAIVKLIEERELTKKQIEKLKNQREKLESLCRTLQAERKQGPSASIPDAPSSQEVSATSQES
  GUS/luciferase ratio from the z1C (22-kD zein) promoter reporter in onion epidermal cells; YFP-O2 co-expressed with CFP-Taxilin against YFP-O2 alone: 47%
